The target of assay [1] is T1, rat calcitonin receptor (rat, UniProt P32214 25-516).
T1 construct: whole, on cells; Membranes prepared from transiently transfected BHK tk'ts 13 cells; also called rCTR; rat calcitonin (a) receptor
T1 sequence (looked up): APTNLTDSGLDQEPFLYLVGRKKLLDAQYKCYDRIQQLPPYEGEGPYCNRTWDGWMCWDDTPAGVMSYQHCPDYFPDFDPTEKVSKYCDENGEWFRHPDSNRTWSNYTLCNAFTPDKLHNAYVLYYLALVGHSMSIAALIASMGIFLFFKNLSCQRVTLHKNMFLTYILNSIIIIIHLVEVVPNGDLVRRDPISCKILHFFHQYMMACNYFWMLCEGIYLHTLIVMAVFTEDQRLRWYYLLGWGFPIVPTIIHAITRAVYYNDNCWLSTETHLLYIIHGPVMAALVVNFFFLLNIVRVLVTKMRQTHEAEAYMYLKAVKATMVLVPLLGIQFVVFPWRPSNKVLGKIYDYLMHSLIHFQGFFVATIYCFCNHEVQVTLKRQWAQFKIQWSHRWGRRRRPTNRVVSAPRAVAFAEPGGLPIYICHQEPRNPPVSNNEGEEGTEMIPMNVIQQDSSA
Description: SPA competition vs 125I-calcitonin, membranes (Assay VIII).

The target in assay [2] is T2, human calcitonin receptor (human, UniProt P30988 25-474).
T2 construct: whole, on cells; Membranes from stably transfected BHK cells; also called hCTR; hCT
T2 sequence (looked up): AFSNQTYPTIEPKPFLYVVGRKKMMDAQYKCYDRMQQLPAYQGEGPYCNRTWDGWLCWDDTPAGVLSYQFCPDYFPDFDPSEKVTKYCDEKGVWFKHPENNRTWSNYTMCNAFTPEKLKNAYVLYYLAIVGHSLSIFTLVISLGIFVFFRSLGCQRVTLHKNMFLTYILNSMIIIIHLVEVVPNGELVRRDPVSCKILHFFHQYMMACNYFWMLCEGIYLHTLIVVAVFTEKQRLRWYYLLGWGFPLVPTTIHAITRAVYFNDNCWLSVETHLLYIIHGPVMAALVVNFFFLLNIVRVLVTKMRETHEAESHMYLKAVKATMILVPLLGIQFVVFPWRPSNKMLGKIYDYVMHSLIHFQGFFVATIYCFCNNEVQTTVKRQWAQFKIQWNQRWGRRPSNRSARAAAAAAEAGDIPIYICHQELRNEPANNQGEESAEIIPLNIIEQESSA
Description: ratio of IC50 on human calcitonin receptor to IC50 on human amylin receptor. Summed up:
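Competition binding by SPA with cell membranes (35 ng/μL) and SPA beads in 50 mM Hepes pH 7.4 with 1 mM CaCl2, 5 mM MgCl2, 0.1% OA and 0.02% Tween20. Incubated 120 min at 25 °C with shaking, then counted.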

Assay [3] concerns the target T1, rat calcitonin receptor. Description: ratio of IC50 on rat calcitonin receptor to IC50 on rat amylin receptor.
Assay [4] has as its target T3, rat amylin receptor (rat calcitonin receptor + rat RAMP 3) (rat, UniProt P32214 25-516; Q9JJ73 23-147).
T3 construct: whole, on cells; Membranes prepared from transiently transfected BHK tk'ts 13 cells; also called rAmylin-R; rat amylin 3(a) receptor
T3 sequence (looked up) 1: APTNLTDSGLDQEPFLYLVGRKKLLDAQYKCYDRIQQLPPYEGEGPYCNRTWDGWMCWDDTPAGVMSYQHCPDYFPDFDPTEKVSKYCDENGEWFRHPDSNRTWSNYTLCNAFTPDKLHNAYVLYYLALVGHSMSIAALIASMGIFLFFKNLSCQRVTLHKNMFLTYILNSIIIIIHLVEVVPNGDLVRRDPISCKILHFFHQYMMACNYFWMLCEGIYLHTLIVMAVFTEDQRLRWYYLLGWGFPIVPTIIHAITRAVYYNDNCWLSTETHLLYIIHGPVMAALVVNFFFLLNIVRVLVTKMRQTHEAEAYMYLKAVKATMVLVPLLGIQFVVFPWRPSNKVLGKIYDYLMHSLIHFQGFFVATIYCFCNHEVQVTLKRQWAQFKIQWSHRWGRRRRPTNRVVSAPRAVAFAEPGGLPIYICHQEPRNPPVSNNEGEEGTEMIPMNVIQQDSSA
T3 sequence (looked up) 2: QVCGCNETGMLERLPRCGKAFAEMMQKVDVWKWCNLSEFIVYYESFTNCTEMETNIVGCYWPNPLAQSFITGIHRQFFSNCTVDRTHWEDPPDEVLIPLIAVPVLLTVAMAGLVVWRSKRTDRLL
Description: SPA competition vs 125I-rat amylin, membranes (Assay VI).

Numbered stars: 1 amine (or outer) side, 2 acyl side, 3 side chain; on linkers, the order of the positions; unused ones are H or OH. Bridge positions count the residues as written; N and C are the ends. Side chains are listed from the residue outwards. Ends that are not written are not given here. * marks the point of attachment. C20 diacid = O=C(O)CCCCCCCCCCCCCCCCCCC(=O)*; γGlu = O=C(O)[C@H](CCC(=O)[*:2])N[*:1]

The record followed here is patent US20140087995A1 (published 2014).

B1: N^ε1-[(4S)-4-carboxy-4-(19-carboxynonadecanoylamino)butanoyl]-[Ala14,Arg17,Pro21,Pro27,Pro34]-h-amylin (peptide)
peptide: K([γGlu-C20 diacid])CNTATCATQRLAAFLRHSSPNFGAIPSSTNVGPNTY-NH2
modifications: disulfide 2-7; N-terminus assumed
SMILES: CC[C@H](C)[C@H](NC(=O)[C@H](C)NC(=O)CNC(=O)[C@H](Cc1ccccc1)NC(=O)[C@H](CC(N)=O)NC(=O)[C@@H]1CCCN1C(=O)[C@H](CO)NC(=O)[C@H](CO)NC(=O)[C@H](Cc1c[nH]cn1)NC(=O)[C@H](CCCNC(=N)N)NC(=O)[C@H](CC(C)C)NC(=O)[C@H](Cc1ccccc1)NC(=O)[C@H](C)NC(=O)[C@H](C)NC(=O)[C@H](CC(C)C)NC(=O)[C@H](CCCNC(=N)N)NC(=O)[C@H](CCC(N)=O)NC(=O)[C@@H](NC(=O)[C@H](C)NC(=O)[C@@H]1CSSC[C@H](NC(=O)[C@@H](N)CCCCNC(=O)CC[C@H](NC(=O)CCCCCCCCCCCCCCCCCCC(=O)O)C(=O)O)C(=O)N[C@@H](CC(N)=O)C(=O)N[C@@H]([C@@H](C)O)C(=O)N[C@@H](C)C(=O)N[C@@H]([C@@H](C)O)C(=O)N1)[C@@H](C)O)C(=O)N1CCC[C@H]1C(=O)N[C@@H](CO)C(=O)N[C@@H](CO)C(=O)N[C@H](C(=O)N[C@@H](CC(N)=O)C(=O)N[C@H](C(=O)NCC(=O)N1CCC[C@H]1C(=O)N[C@@H](CC(N)=O)C(=O)N[C@H](C(=O)N[C@@H](Cc1ccc(O)cc1)C(N)=O)[C@@H](C)O)C(C)C)[C@@H](C)O
notes: also called compound 94
In general, IC50 refers to the concentration that gives 50% inhibition. Consider B1, for which the IC50 with rat calcitonin receptor [1] is 111 nM; in assay [4], 0.397 nM. Besides, the “Ratio hCT/hAmylin binding” value in assay [2] came to 46.3. Further, the “Ratio rCT/rAmylin binding” value with rat calcitonin receptor [3] was 280.

B2: N^ε1-[(4S)-4-carboxy-4-(19-carboxynonadecanoylamino)butanoyl]-[Asp14,Arg17,Pro21,Pro27,Pro34,Arg35]-h-amylin (peptide)
peptide: K([γGlu-C20 diacid])CNTATCATQRLADFLRHSSPNFGAIPSSTNVGPRTY-NH2
modifications: disulfide 2-7; N-terminus assumed
SMILES: CC[C@H](C)[C@H](NC(=O)[C@H](C)NC(=O)CNC(=O)[C@H](Cc1ccccc1)NC(=O)[C@H](CC(N)=O)NC(=O)[C@@H]1CCCN1C(=O)[C@H](CO)NC(=O)[C@H](CO)NC(=O)[C@H](Cc1c[nH]cn1)NC(=O)[C@H](CCCNC(=N)N)NC(=O)[C@H](CC(C)C)NC(=O)[C@H](Cc1ccccc1)NC(=O)[C@H](CC(=O)O)NC(=O)[C@H](C)NC(=O)[C@H](CC(C)C)NC(=O)[C@H](CCCNC(=N)N)NC(=O)[C@H](CCC(N)=O)NC(=O)[C@@H](NC(=O)[C@H](C)NC(=O)[C@@H]1CSSC[C@H](NC(=O)[C@@H](N)CCCCNC(=O)CC[C@H](NC(=O)CCCCCCCCCCCCCCCCCCC(=O)O)C(=O)O)C(=O)N[C@@H](CC(N)=O)C(=O)N[C@@H]([C@@H](C)O)C(=O)N[C@@H](C)C(=O)N[C@@H]([C@@H](C)O)C(=O)N1)[C@@H](C)O)C(=O)N1CCC[C@H]1C(=O)N[C@@H](CO)C(=O)N[C@@H](CO)C(=O)N[C@H](C(=O)N[C@@H](CC(N)=O)C(=O)N[C@H](C(=O)NCC(=O)N1CCC[C@H]1C(=O)N[C@@H](CCCNC(=N)N)C(=O)N[C@H](C(=O)N[C@@H](Cc1ccc(O)cc1)C(N)=O)[C@@H](C)O)C(C)C)[C@@H](C)O
Turning to B2, the IC50 was 58.5 nM with rat calcitonin receptor [1] and 0.504 nM in assay [4]. For the same molecule, in assay [2], the “Ratio hCT/hAmylin binding” value was 151. Besides, in the assay with rat calcitonin receptor [3], the “Ratio rCT/rAmylin binding” value is 116.
